Test results taken from article PMC11009657 (Proceedings of the National Academy of Sciences of the …, 2024).

Key:
[1] = target: tau extracted from Alzheimer brain samples (human (endogenous in Alzheimer brain)); experiment: sarkosyl extraction and Western blot
[2] = target: the molecule itself; experiment: ThT fluorescence + TEM

Sequence of tau extracted from Alzheimer brain samples (natural protein) (P10636 2-758): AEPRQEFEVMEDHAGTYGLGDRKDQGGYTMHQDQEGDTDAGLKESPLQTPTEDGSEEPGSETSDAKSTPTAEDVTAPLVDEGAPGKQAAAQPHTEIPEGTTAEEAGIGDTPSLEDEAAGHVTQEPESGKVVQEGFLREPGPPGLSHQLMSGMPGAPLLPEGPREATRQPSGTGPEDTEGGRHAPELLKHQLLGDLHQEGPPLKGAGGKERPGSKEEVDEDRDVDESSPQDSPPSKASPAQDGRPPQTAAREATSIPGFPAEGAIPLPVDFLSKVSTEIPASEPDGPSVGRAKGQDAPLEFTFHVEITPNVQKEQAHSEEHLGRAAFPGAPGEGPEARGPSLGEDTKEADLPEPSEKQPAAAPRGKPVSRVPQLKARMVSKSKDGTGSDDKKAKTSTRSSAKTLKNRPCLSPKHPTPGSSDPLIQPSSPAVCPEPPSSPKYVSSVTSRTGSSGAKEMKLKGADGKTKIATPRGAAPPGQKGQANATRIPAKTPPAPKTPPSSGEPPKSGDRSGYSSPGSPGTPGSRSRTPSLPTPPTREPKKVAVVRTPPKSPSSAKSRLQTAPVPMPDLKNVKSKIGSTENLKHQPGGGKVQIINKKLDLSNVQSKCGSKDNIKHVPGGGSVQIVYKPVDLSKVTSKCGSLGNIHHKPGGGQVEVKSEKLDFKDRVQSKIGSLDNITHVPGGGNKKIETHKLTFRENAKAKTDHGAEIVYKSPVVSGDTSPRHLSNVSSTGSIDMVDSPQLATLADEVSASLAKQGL

Row | Molecule | stoichiometry N [1] | binding result [2]
1 | tau extracted from Alzheimer brain samples (natural protein) | 6 | –
2 | DNIKHVPGGGSVQIVYKPV [jR2R3] | – | binds
